B1: GAGE1 (parent)
chain: RPRRYVQPPEMIGPMRPEQFSDEV
B2: POMT2 (parent)
chain: LRGGGQVLLGWTLHYFPFFLMGRV

Variants of: B1
Test: protein stability index of a GFP-peptide fusion (GPS, HEK-293T) (PSI 1-6); higher = more stable
Settings: c terminus: a fixed tail appended
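Further: lentivirally expressed fusions sorted by FACS into six bins by GFP to DsRed ratio, PSI derived from sequencing read proportions per bin multiplied by bin number.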

Variant | protein stability index
RPRRYVQPPEMIGPMRPEQKSDEV | 4.92
RPRRYVQPPEMIGPMRPEQFSDPV | 3.63
RPRRYVQPPEMIGPMRPEQFSDCV | 3.58
RPRRYVQPPEMIGPMRPEQFSDDV | 3.77
RPRRYVQPPEMIGPMRPEQFSDAV | 3.59
RPRRYVQPPEMIGPMRPEQFSDGV | 3.46
RPRRYVQPPEMIGPMRPEQFSDLV | 3.08
RPRRYVQPPEMIGPMRPEQFSDSV | 3.68
RPRRYVQPPEMIGPMRPEQFSDKV | 3.65
RPRRYVQPPEMIGPMRPEQFSDIV | 2.92
RPRRYVQPPEMIGPMRPEQFSDNV | 3.42
RPRRYVQPPEMIGPMRPEQFSDYV | 2.76
RPRRYVQPPEMIGPMRPEQFSDTV | 3.75
RPRRYVQPPEMIGPMRPEQFSDVV | 3.77
RPRRYVQPPEMIGPMRPEQFSDHV | 3.6
RPRRYVQPPEMIGPMRPEQFSDQV | 3.63
RPRRYVQPPEMIGPMRPEQFSDWV | 2.95
RPRRYVQPPEMIGPMRPEQFSDMV | 2.85
RPRRYVQPPEMIGPMRPEQFSDFV | 2.98
RPRRYVQPPEMIGPMRPEQFSDRV | 3.85
RPRRYVQPPEMIGPMRPEQFSVEV | 2.9
RPRRYVQPPEMIGPMRPEQFSTEV | 3.76

Variant | protein stability index
RPRRYVQPPEMIGPMRPEQFSPEV | 3.95
RPRRYVQPPEMIGPMRPEQFSSEV | 3.95
RPRRYVQPPEMIGPMRPEQFSWEV | 2.53
RPRRYVQPPEMIGPMRPEQFSCEV | 3.14
RPRRYVQPPEMIGPMRPEQFSAEV | 3.87
RPRRYVQPPEMIGPMRPEQFSEEV | 3.83
RPRRYVQPPEMIGPMRPEQFSIEV | 1.97
RPRRYVQPPEMIGPMRPEQFSNEV | 3.23
RPRRYVQPPEMIGPMRPEQFSYEV | 2.77
RPRRYVQPPEMIGPMRPEQFSREV | 3.5
RPRRYVQPPEMIGPMRPEQFSKEV | 3.88
RPRRYVQPPEMIGPMRPEQFSLEV | 2.6
RPRRYVQPPEMIGPMRPEQFSFEV | 2.16
RPRRYVQPPEMIGPMRPEQFSQEV | 3.11
RPRRYVQPPEMIGPMRPEQFSMEV | 3.06
RPRRYVQPPEMIGPMRPEQFSGEV | 3.62
RPRRYVQPPEMIGPMRPEQFSHEV | 3.29
RPRRYVQPPEMIGPMRPEQFTDEV | 3.71
RPRRYVQPPEMIGPMRPEQFIDEV | 2.9
RPRRYVQPPEMIGPMRPEQFHDEV | 3.55
RPRRYVQPPEMIGPMRPEQFPDEV | 3.99
RPRRYVQPPEMIGPMRPEQFNDEV | 3.87

Variant | protein stability index
RPRRYVQPPEMIGPMRPEQFLDEV | 3.48
RPRRYVQPPEMIGPMRPEQFADEV | 3.69
RPRRYVQPPEMIGPMRPEQFWDEV | 3.01
RPRRYVQPPEMIGPMRPEQFQDEV | 3.79
RPRRYVQPPEMIGPMRPEQFMDEV | 3.44
RPRRYVQPPEMIGPMRPEQFKDEV | 4
RPRRYVQPPEMIGPMRPEQFVDEV | 3.64
RPRRYVQPPEMIGPMRPEQFCDEV | 4.15
RPRRYVQPPEMIGPMRPEQFFDEV | 2.97
RPRRYVQPPEMIGPMRPEQFEDEV | 3.73
RPRRYVQPPEMIGPMRPEQFRDEV | 4.11
RPRRYVQPPEMIGPMRPEQFDDEV | 3.98
RPRRYVQPPEMIGPMRPEQFYDEV | 3.63
RPRRYVQPPEMIGPMRPEQFGDEV | 4.17
RPRRYVQPPEMIGPMVPEQFSDEV | 4.16
RPRRYVQPPEMIGPMSPEQFSDEV | 3.87
RPRRYVQPPEMIGPMTPEQFSDEV | 3.8
RPRRYVQPPEMIGPMYPEQFSDEV | 4.02
RPRRYVQPPEMIGPMQPEQFSDEV | 4.26
RPRRYVQPPEMIGPMWPEQFSDEV | 3.28

Variants of: B2
Test: as above
Settings: c terminus: a fixed tail appended

Variant | protein stability index
LRGGGQVLLGWTEHYFPFFLMGRV | 2.93
LSGGGQVLLGWTLHYFPFFLMGRV | 2.59
LRGGGQVLLGWTLHYFPFALMGRV | 2.89
LRGDGQVLLGWTLHYFPFFLMGRV | 2.16
LRGLGQVLLGWTLHYFPFFLMGRV | 1.27
LRGYGQVLLGWTLHYFPFFLMGRV | 2.25
LRGGGQVLLGWTLHYFPTFLMGRV | 1.98
LRGGGQVLLGWTLYYFPFFLMGRV | 3.36
LRGGGQVLLGWTLHYFPFFLKGRV | 2.16
DRGGGQVLLGWTLHYFPFFLMGRV | 2.89
LRGGGDVLLGWTLHYFPFFLMGRV | 1.69
LRGGGFVLLGWTLHYFPFFLMGRV | 2.24
LRGGGQVLLGWTLHYFPFFLMCRV | 1.58
LRGGGQVLLGWTLHYFPFFLMLRV | 3.83
LRGGGQVLLGWTLHYFPFFLMGRA | 1.72
LRGGGQVLLVWTLHYFPFFLMGRV | 2.29
LRGGGQVLLGWTLHYFPFFLMGDV | 1.88
LRGGGQVLLGWTLHYFPFFLMGYV | 1.9
LRGGGQVLLGYTLHYFPFFLMGRV | 1.2
LRGGGQVLLGATLHYFPFFLMGRV | 1.93
LRGGGQVLLGNTLHYFPFFLMGRV | 4.22
LRGGGQVLFGWTLHYFPFFLMGRV | 2.91
LRIGGQVLLGWTLHYFPFFLMGRV | 2.59
LRGGGQVLLGWTLHWFPFFLMGRV | 2.28
LRGGGQVLLGWALHYFPFFLMGRV | 2.59
LRGGGQVLLGWHLHYFPFFLMGRV | 2.35
LRGGGQVLLGWTLHYFNFFLMGRV | 2.79
LRGGGQVLLGWTLHYFEFFLMGRV | 1.35
LRGGGQALLGWTLHYFPFFLMGRV | 2.26
LRGGGQGLLGWTLHYFPFFLMGRV | 3.97

Reference: the supplement of paper PMC10567573
